Data: patent US20140286957A1 (Teva, published 2014)
Read-outs that look alike come from different tables or passages of the source.

Assays:
[1] = molecular target: T1, Human CD1d on cells (human, UniProt P15813 20-335); assay: cell-based or functional assay
T1 sequence (looked up): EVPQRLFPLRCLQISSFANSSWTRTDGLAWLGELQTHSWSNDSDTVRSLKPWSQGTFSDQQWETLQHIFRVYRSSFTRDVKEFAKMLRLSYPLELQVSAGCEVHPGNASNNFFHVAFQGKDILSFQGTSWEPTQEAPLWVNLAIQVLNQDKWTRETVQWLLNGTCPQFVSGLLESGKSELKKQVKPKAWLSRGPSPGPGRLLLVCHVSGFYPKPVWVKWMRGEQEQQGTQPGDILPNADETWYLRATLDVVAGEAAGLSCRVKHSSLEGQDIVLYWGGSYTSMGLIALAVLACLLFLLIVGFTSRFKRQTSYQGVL

[2] = molecular target: T2, Human CD1d/β2M (human, UniProt P15813 20-301; P61769 21-119); assay: SPR, transfection supernatant
T2 construct: also called hCD1d; recombinant human CD1d

[3] = molecular target: T2, Human CD1d/β2M; assay: SPR
[4] = molecular target: T1, Human CD1d on cells; assay: cell-based or functional assay; remark: listed apart in the source
[5] = molecular target: T1, Human CD1d on cells; assay: cell-based or functional assay; remark: listed apart in the source
[6] = molecular target: T1, Human CD1d on cells; assay: cell-based or functional assay; remark: listed apart in the source
[7] = molecular target: T1, Human CD1d on cells; assay: cell-based or functional assay; remark: listed apart in the source
[8] = molecular target: T1, Human CD1d on cells; assay: cell-based or functional assay; remark: listed apart in the source

B1: 401.11.24 (antibody, IgG4, V domains shown)
VH: QVQLVGSGGGLVKPGRSLRLSCAASGFTFDDYAMHWVRQAPGKGLEWVATIIWNSAIIGYADSVKGRFIVSRDNAKNSLYLQMNSLRAEDTALYYCAKDMCSSSGCPDGYFDSWGQGTLVTVSS
VL: DIQMTQSPSSVSASVGDRVTITCRASQHISSWLAWYQQKPGKAPKLLIYAASSLQSGVSSRFSGSGSGTDFTLTISSLQPEDFATYYCQQANRFPLTFGGGTKLEIKR
notes: IgG4 (S228P)
NKT IFN-γ EC50 (THP-1) [1]: 4.26 ng/mL | NKT IFN-γ EC50 (moDC) [1]: 0.36 ng/mL | Kd [2]: 0.644 nM

B2: 401.11.19 (antibody, V domains shown)
VH: QVQLVGSGGGLVKPGRSLRLSCAASGFTFDDYAMHWVRQAPGKGLEWVATIIWNSAIIGYADSVKGRFIVSRDNAKNSLYLQMNSLRAEDMALYYCAKDMCSSSGCPDGYFDSWGQGTLVTVSS
VL: DIQMTQSPSSVSASVGDRVTITCRASQHISSWLAWYQQKPGKAPKLLIYAASSLQSGVSSRFSGSGSGTDFTLTISSLQPEDFATYYCQQANRFPLTFGGGTKLEIK
Kd [2]: 0.667 nM

B3: 401.11.156 (antibody, IgG4, V domains shown)
VH: QVQLVGSGGGLVKPGRSLRLSCAASGFTFDDYAMHWVRQAPGKGLEWVATIIWNSAIIGYADSVKGRFIVSRDNAKNSLYLQMNSLRAEDTALYYCAKDMCSSGGCPDGYFDSWGQGTLVTVSS
VL: DIQMTQSPSSVSASVGDRVTITCRASQHISSWLAWYQQKPGKAPKLLIYAASSLQSGVSSRFSGSGSGTDFTLTISSLQPEDFATYYCQQANRFPLTFGGGTKLEIKR
notes: IgG4 (S228P)
Kd [3]: 0.223 nM | fold improvement against 401.11 (IFN-γ, moDC) [4]: ~5.1 fold | NKT IL-4 EC50 (moDC) [5]: 1.95 ng/mL | NKT IL-13 EC50 (moDC) [5]: 5.22 ng/mL | NKT IFN-γ EC50 (moDC) [6]: 7.76 ng/mL | NKT IL-4 EC50 (moDC) [6]: 2.72 ng/mL | NKT IL-5 EC50 (moDC) [6]: 5.86 ng/mL | NKT IL-13 EC50 (moDC) [6]: 9.53 ng/mL | NKT TNF EC50 (moDC) [6]: 4.51 ng/mL | NKT IFN-γ EC50 (THP-1) [7]: 5.81 ng/mL | NKT IL-4 EC50 (THP-1) [7]: 1.99 ng/mL | NKT IL-5 EC50 (THP-1) [7]: 4.45 ng/mL | NKT IL-13 EC50 (THP-1) [7]: 6.91 ng/mL | NKT TNF EC50 (THP-1) [7]: 3.85 ng/mL

B4: 401.11.86 (antibody, IgG4, V domains shown)
VH: QVQLVGSGGGLVKPGRSLRLSCAASGFTFDDYAMHWVRQAPGKGLEWVATIIWNSAIIGYADSVKGRFIVSRDNAKNSLYLQMNSLRAEDMALYYCAKDMCSSGGCPDGYFDSWGQGTLVTVSS
VL: DIQMTQSPSSVSASVGDRVTITCRASQHISSWLAWYQQKPGKAPNLLIYAASSLQSGVSSRFSGSGSGTDFTLTISSLQPEDFATYYCQQANRFPLTFGGGTKLEIKR
NKT IFN-γ EC50 (THP-1) [8]: 1.29 ng/mL | NKT IFN-γ EC50 (moDC) [8]: 0.359 ng/mL | NKT IL-4 EC50 (THP-1) [8]: 0.509 ng/mL | NKT IL-4 EC50 (moDC) [8]: 1.74 ng/mL

B5: 401.11.28 (antibody, IgG4, V domains shown)
VH: QVQLVGSGGGLVKPGRSLRLSCAASGFTFDDYAMHWVRQAPGKGLEWVATIIWNSAIIGYADSVKGRFIVSRDNAKNSLYLQMNSLRAEDTALYYCAKDMCSSSGCPDGYFDSWGQGTLVTVSS
VL: DIQMTQSPSSVSASVGDRVTITCRASQHISSWLAWYQQKPGKAPNLLIYAASSLQSGVPSRFSGSGSGTDFTLTISSLQPEDFATYYCQQANRFPLTFGGGTKLEIKR
NKT IFN-γ EC50 (THP-1) [1]: 1.42 ng/mL | NKT IFN-γ EC50 (moDC) [1]: 0.294 ng/mL

B6: 401.11.18 (antibody, V domains shown)
VH: QVQLVGSGGGLVKPGRSLRLSCAASGFTFDDYAMHWVRQAPGKGLEWVATIIWNSAIIGYADSVKGRFIVSRDNAKNSLYLQMNSLRAEDTALYYCAKDMCSSSGCPDGYFDSWGQGTLVTVSS
VL: DIQMTQSPSSVSASVGDRVTITCRASQHISSWLAWYQQKPGKAPNLLIYAASSLQSGVSSRFSGSGSGTDFTLTISSLQPEDFATYYCQQANRFPLTFGGGTKLEIK
Kd [2]: 9.97 nM

B7: 401.11.20 (antibody, V domains shown)
VH: QVQLVGSGGGLVKPGRSLRLSCAASGFTFDDYAMHWVRQAPGKGLEWVATIIWNSAIIGYADSVKGRFIVSRDNAKNSLYLQMNSLRAEDMALYYCAKDMCSSSGCPDGYFDSWGQGTLVTVSS
VL: DIQMTQSPSSVSASVGDRVTITCRASQHISSWLAWYQQKPGKAPNLLIYAASSLQSGVPSRFSGSGSGTDFTLTISSLQPEDFATYYCQQANRFPLTFGGGTKLEIK
Kd [2]: 0.977 nM

B8: 401.11.157 (antibody, IgG4, V domains shown)
VH: QVQLVGSGGGLVKPGRSLRLSCAASGFTFDDYAMHWVRQAPGKGLEWVATIIWNSAIIGYADSVKGRFIVSRDNAKNSLYLQMNSLRAEDTALYYCAKDMCSSGGCPDGYFDSWGQGTLVTVSS
VL: DIQMTQSPSSVSASVGDRVTITCRASQHISSWLAWYQQKPGKAPNLLIYAASSLQSGVPSRFSGSGSGTDFTLTISSLQPEDFATYYCQQANRFPLTFGGGTKLEIKR
notes: IgG4 (S228P)
Kd [3]: 0.173 nM | NKT IL-4 EC50 (moDC) [5]: 0.799 ng/mL | NKT IL-13 EC50 (moDC) [5]: 3.87 ng/mL | NKT IFN-γ EC50 (moDC) [6]: 9.11 ng/mL | NKT IL-4 EC50 (moDC) [6]: 3.44 ng/mL | NKT IL-5 EC50 (moDC) [6]: 8.49 ng/mL | NKT IL-13 EC50 (moDC) [6]: 20.6 ng/mL | NKT TNF EC50 (moDC) [6]: 5.59 ng/mL | NKT IFN-γ EC50 (THP-1) [7]: 5.45 ng/mL | NKT IL-4 EC50 (THP-1) [7]: 1.81 ng/mL | NKT IL-5 EC50 (THP-1) [7]: 4.48 ng/mL | NKT IL-13 EC50 (THP-1) [7]: 6.98 ng/mL | NKT TNF EC50 (THP-1) [7]: 3.54 ng/mL
